± gives the standard deviation of the averaged measurements.
Tested on: ATP
Test: switch fluorescence ratio, 500 uM ATP over buffer (Cy3 cluster intensity, sum of 5 cycles each) (fold (ratio)); higher = stronger signal-on switching upon ATP binding; sequences stand for … in TCGTCGGCAGCGTCAGATGTGTATAAGAGACAGTTTTTTTTTTTTTTTTTTTTTTTTT…TC
Conditions: aptamer strand: ATP DNA aptamer (quencher-CACCTGGGGGAGTATTGCGGAGGAAGG + anchor), 100 nM annealed; ATP concentration: 500 uM
Method in brief: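 Cy3-labelled switching-strand clusters on a modified Illumina MiSeq flow-cell were annealed to 100 nM quencher-labelled ATP aptamer, imaged in selection buffer, then imaged after 15 min with 500 uM ATP at 22 °C. Five buffer/ATP cycles ran, with NaOH stripping and re-annealing between them. The fluorescence ratio is summed target-cycle over summed buffer-cycle Cy3 intensity per cluster, averaged per switch-domain sequence. Clusters outside 100-1000 RFU were excluded.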
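Further: ATP exposure 15 min at 22 °C before imaging.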

Row | Sequence | switch fluorescence ratio
1 | TACCGGATGG | 1.03 ± 0.021
2 | TACCGGGGGC | 1.14 ± 0.09
3 | TACCGGTTCG | 1 ± 0.011
4 | TACCGTGGGC | 1.04 ± 0.036
5 | TACCTATTTT | 1.035 ± 0.0014
6 | TACCTGGGTC | 0.996 ± 0.028
7 | TACCTGGTAC | 1.056 ± 0.0043
8 | TACGACCGTG | 1.01 ± 0.046
9 | TACGATAATC | 1.146 ± 0.011
10 | TACGATGGTT | 0.989 ± 0.028
11 | TACGATTTAT | 1.018 ± 0.0096
12 | TACGCACATA | 1.48 ± 0.15
13 | TACGCAGTAT | 1.15 ± 0.061
14 | TACGCCTGGT | 1.034 ± 0.0071
15 | TACGCTCTCA | 1.21 ± 0.23
16 | TACGGAGTCT | 0.9814 ± 0.0075
17 | TACGGATTAG | 1.051 ± 0.0051
18 | TACGGCAAAT | 1.121 ± 0.01
19 | TACGGCAGGG | 1.059 ± 0.0024
20 | TACGGGACTT | 1.26 ± 0.033
21 | TACGGGGAGT | 0.998 ± 0.026
22 | TACGGGGGTC | 1.02 ± 0.047
23 | TACGGGTAT | 0.9977 ± 0.0024
24 | TACGGGTTTT | 1.01 ± 0.039
25 | TACGGTACGG | 1.18 ± 0.04
26 | TACGGTCGCG | 0.9949 ± 0.0036

Row | Sequence | switch fluorescence ratio
27 | TACGGTGGGG | 1.01 ± 0.027
28 | TACGTATAAT | 1.15 ± 0.015
29 | TACGTATGGG | 0.997 ± 0.021
30 | TACGTGAATT | 1.04 ± 0.05
31 | TACGTGATTT | 1.14 ± 0.093
32 | TACGTGGGTT | 0.994 ± 0.051
33 | TACGTTAGCT | 1.119 ± 0.0018
34 | TACGTTCTGA | 0.999 ± 0.049
35 | TACTACCTGG | 1.3 ± 0.25
36 | TACTATACGT | 1.276 ± 0.007
37 | TACTATGATT | 1.04 ± 0.018
38 | TACTATTATC | 1.0537 ± 0.00026
39 | TACTCAGTAT | 1.0208 ± 0.00084
40 | TACTCATTGC | 1.03 ± 0.067
41 | TACTCGAAAC | 1.8 ± 0.97
42 | TACTCGGCCG | 1.02 ± 0.035
43 | TACTCGGCTC | 1.66 ± 0.11
44 | TACTCGGTTT | 0.98 ± 0.014
45 | TACTCTGTGT | 1.01 ± 0.014
46 | TACTGAGACA | 1.074 ± 0.0066
47 | TACTGGAGGC | 1.02 ± 0.043
48 | TACTGTCTTG | 0.97 ± 0.014
49 | TACTTACGAT | 1.37 ± 0.065
50 | TACTTCATCA | 1.03 ± 0.02
51 | TACTTGGCCG | 1.01 ± 0.052
52 | TACTTGTAAT | 1.02 ± 0.055

Row | Sequence | switch fluorescence ratio
53 | TACTTGTGTA | 1.02 ± 0.014
54 | TACTTTTGAC | 1.04 ± 0.011
55 | TAGAAAAATT | 0.993 ± 0.015
56 | TAGAAACGGG | 1.02 ± 0.031
57 | TAGAAAGATT | 1.02 ± 0.016
58 | TAGAAATCGG | 1.02 ± 0.015
59 | TAGAAATTAA | 0.977 ± 0.019
60 | TAGAAATTCG | 1.28 ± 0.5
61 | TAGAACAACT | 1.21 ± 0.34
62 | TAGAACCTCG | 1.02 ± 0.057
63 | TAGAACTTCG | 1.014 ± 0.0077
64 | TAGAAGGGAA | 1.03 ± 0.063
65 | TAGAAGTATT | 1.01 ± 0.027
66 | TAGAAGTGGT | 0.9963 ± 0.0084
67 | TAGAATAGGT | 0.978 ± 0.011
68 | TAGAATAGTC | 0.974 ± 0.01
69 | TAGAATATAG | 0.991 ± 0.0011
70 | TAGAATCGCT | 1 ± 0.049
71 | TAGAATGTTT | 1.02 ± 0.012
72 | TAGAATTGAG | 0.984 ± 0.022
73 | TAGAATTGTG | 1.21 ± 0.33
74 | TAGACAATTT | 1 ± 0.00074
75 | TAGACAGCCA | 1.02 ± 0.041
76 | TAGACCTTAA | 1.09 ± 0.029
77 | TAGACGTTGG | 1.02 ± 0.014
78 | TAGAGAATAT | 0.992 ± 0.026

Row | Sequence | switch fluorescence ratio
79 | TAGAGACCTG | 1 ± 0.071
80 | TAGAGAGCTT | 0.986 ± 0.036
81 | TAGAGAGGGC | 1.011 ± 0.0093
82 | TAGAGATGGG | 1.02 ± 0.028
83 | TAGAGATTAG | 1 ± 0.038
84 | TAGAGCGGGA | 1.008 ± 0.0087
85 | TAGAGCGTAT | 1 ± 0.033
86 | TAGAGCTAC | 1.17 ± 0.049
87 | TAGAGGAAGC | 1 ± 0.011
88 | TAGAGGACGA | 1.04 ± 0.063
89 | TAGAGGAGCT | 1 ± 0.038
90 | TAGAGGCGGG | 0.981 ± 0.025
91 | TAGAGGGGAG | 1.02 ± 0.022
92 | TAGAGGGTAC | 1.19 ± 0.24
93 | TAGAGGTG | 1.11 ± 0.016
94 | TAGAGTATCT | 0.999 ± 0.027
95 | TAGATAGTTT | 0.981 ± 0.029
96 | TAGATCTGGG | 1.002 ± 0.0072
97 | TAGATGAGGC | 1.01 ± 0.061
98 | TAGATGCAGT | 1.04 ± 0.042
99 | TAGATTTATT | 0.995 ± 0.028
100 | TAGATTTGAT | 0.9664 ± 0.0028
101 | TAGATTTGTA | 1.01 ± 0.021
102 | TAGCACGGCA | 1.06 ± 0.029
103 | TAGCACTGAG | 1.05 ± 0.043
104 | TAGCAGGTGG | 1.15 ± 0.14

Row | Sequence | switch fluorescence ratio
105 | TAGCCGGCGT | 1.01 ± 0.013
106 | TAGCCGGGAC | 1.25 ± 0.26
107 | TAGCCGGTCG | 0.9846 ± 0.0023
108 | TAGCCGTCTG | 1.04 ± 0.039
109 | TAGCGATTAG | 1.01 ± 0.036
110 | TAGCGGTTCG | 1.01 ± 0.034
111 | TAGCGGTTTC | 0.9746 ± 0.005
112 | TAGCGTGTTG | 1.02 ± 0.031
113 | TAGCTCCGAC | 1.399 ± 0.0031
114 | TAGCTGAGGA | 1.01 ± 0.032
115 | TAGCTGCATG | 1.01 ± 0.017
116 | TAGGAACGAG | 1 ± 0.024
117 | TAGGAAGGTA | 1.01 ± 0.018
118 | TAGGAATTTT | 0.984 ± 0.016
119 | TAGGACGAGG | 1.02 ± 0.021
120 | TAGGAGAAGG | 1.04 ± 0.036
121 | TAGGAGAGTT | 0.994 ± 0.036
122 | TAGGAGATTT | 0.998 ± 0.03
123 | TAGGAGGGGG | 0.995 ± 0.04
124 | TAGGATATGG | 1 ± 0.017
125 | TAGGATCTGG | 0.995 ± 0.027
126 | TAGGATGGTG | 1.03 ± 0.11
127 | TAGGATGTCA | 1.01 ± 0.027
128 | TAGGATTCGA | 0.964 ± 0.016
129 | TAGGCACGCG | 1.027 ± 0.01
130 | TAGGCGGGGT | 0.977 ± 0.05

Row | Sequence | switch fluorescence ratio
131 | TAGGCGTTGG | 0.972 ± 0.033
132 | TAGGCTGGGT | 0.992 ± 0.014
133 | TAGGGAAAGT | 0.9607 ± 0.0022
134 | TAGGGAACGC | 1.02 ± 0.011
135 | TAGGGAAGGT | 1.01 ± 0.034
136 | TAGGGAGAGG | 0.9871 ± 0.0049
137 | TAGGGAGGCA | 1.01 ± 0.028
138 | TAGGGAGGGG | 0.973 ± 0.028
139 | TAGGGATAG | 1.01 ± 0.015
140 | TAGGGATTCC | 1.014 ± 0.0079
141 | TAGGGCAGTA | 0.99 ± 0.046
142 | TAGGGCATAT | 1.1 ± 0.073
143 | TAGGGCCTTT | 0.986 ± 0.023
144 | TAGGGCGTGC | 0.9973 ± 0.0061
145 | TAGGGCGTTC | 1.02 ± 0.079
146 | TAGGGGAACG | 0.959 ± 0.0096
147 | TAGGGGACAG | 1.03 ± 0.058
148 | TAGGGGAGTA | 0.9792 ± 0.0068
149 | TAGGGGAGTT | 0.978 ± 0.04
150 | TAGGGGATAC | 1.06 ± 0.01
151 | TAGGGGATTT | 1 ± 0.042
152 | TAGGGGCTTG | 1.014 ± 0.0011
153 | TAGGGGGAGA | 1.06 ± 0.043

— the supplement of paper PMC10126150
